Test results published in patent US8290713 (LONZA BIOLOGICS, dated 2012).
Non-standard residues stand in square brackets, D forms with d.

B1: ZP-0168 (peptide)
peptide: Ac-[dH][dH][dV][dI][dV][dP]-NH2
SMILES: CC[C@@H](C)[C@@H](NC(=O)[C@H](NC(=O)[C@@H](Cc1c[nH]cn1)NC(=O)[C@@H](Cc1c[nH]cn1)NC(C)=O)C(C)C)C(=O)N[C@@H](C(=O)N1CCC[C@@H]1C(N)=O)C(C)C
B2: ZP-0206 (peptide)
peptide: Ac-[dQ][dY][dP][dV][dL][dI]-NH2
SMILES: CC[C@@H](C)[C@@H](NC(=O)[C@@H](CC(C)C)NC(=O)[C@H](NC(=O)[C@H]1CCCN1C(=O)[C@@H](Cc1ccc(O)cc1)NC(=O)[C@@H](CCC(N)=O)NC(C)=O)C(C)C)C(N)=O
B3: ZP-0161 (peptide)
peptide: Ac-[dH][dH][dV][dK][dV][dA]-NH2
SMILES: CC(=O)N[C@H](Cc1c[nH]cn1)C(=O)N[C@H](Cc1c[nH]cn1)C(=O)N[C@@H](C(=O)N[C@H](CCCCN)C(=O)N[C@@H](C(=O)N[C@H](C)C(N)=O)C(C)C)C(C)C
B4: ZP-0194 (peptide)
peptide: Ac-[dH][dH][dT][dT][dV][dY]-NH2
SMILES: CC(=O)N[C@H](Cc1c[nH]cn1)C(=O)N[C@H](Cc1c[nH]cn1)C(=O)N[C@@H](C(=O)N[C@@H](C(=O)N[C@@H](C(=O)N[C@H](Cc1ccc(O)cc1)C(N)=O)C(C)C)[C@H](C)O)[C@H](C)O
B5: ZP-0207 (peptide)
peptide: Ac-[dQ][dP][dS][dV][dL][dI]-NH2
SMILES: CC[C@@H](C)[C@@H](NC(=O)[C@@H](CC(C)C)NC(=O)[C@H](NC(=O)[C@@H](CO)NC(=O)[C@H]1CCCN1C(=O)[C@@H](CCC(N)=O)NC(C)=O)C(C)C)C(N)=O
B6: ZP-0179 (peptide)
peptide: Ac-[dH][dH][dT][dI][dV][dK]-NH2
SMILES: CC[C@@H](C)[C@@H](NC(=O)[C@H](NC(=O)[C@@H](Cc1c[nH]cn1)NC(=O)[C@@H](Cc1c[nH]cn1)NC(C)=O)[C@H](C)O)C(=O)N[C@@H](C(=O)N[C@H](CCCCN)C(N)=O)C(C)C
B7: ZP-0158 (peptide)
peptide: Ac-[dH][dH][dV][dI][dV][dA]-NH2
SMILES: CC[C@@H](C)[C@@H](NC(=O)[C@H](NC(=O)[C@@H](Cc1c[nH]cn1)NC(=O)[C@@H](Cc1c[nH]cn1)NC(C)=O)C(C)C)C(=O)N[C@@H](C(=O)N[C@H](C)C(N)=O)C(C)C
B8: ZP-0193 (peptide)
peptide: Ac-[dH][dH][dT][dE][dV][dY]-NH2
SMILES: CC(=O)N[C@H](Cc1c[nH]cn1)C(=O)N[C@H](Cc1c[nH]cn1)C(=O)N[C@@H](C(=O)N[C@H](CCC(=O)O)C(=O)N[C@@H](C(=O)N[C@H](Cc1ccc(O)cc1)C(N)=O)C(C)C)[C@H](C)O
B9: ZP-0171 (peptide)
peptide: Ac-[dH][dH][dV][dI][dV][dY]-NH2
SMILES: CC[C@@H](C)[C@@H](NC(=O)[C@H](NC(=O)[C@@H](Cc1c[nH]cn1)NC(=O)[C@@H](Cc1c[nH]cn1)NC(C)=O)C(C)C)C(=O)N[C@@H](C(=O)N[C@H](Cc1ccc(O)cc1)C(N)=O)C(C)C
B10: ZP-0204 (peptide)
peptide: Ac-[dQ][dY][dS][dV][dP][dI]-NH2
SMILES: CC[C@@H](C)[C@@H](NC(=O)[C@H]1CCCN1C(=O)[C@H](NC(=O)[C@@H](CO)NC(=O)[C@@H](Cc1ccc(O)cc1)NC(=O)[C@@H](CCC(N)=O)NC(C)=O)C(C)C)C(N)=O
B11: ZP-0205 (peptide)
peptide: Ac-[dQ][dY][dS][dP][dL][dI]-NH2
SMILES: CC[C@@H](C)[C@@H](NC(=O)[C@@H](CC(C)C)NC(=O)[C@H]1CCCN1C(=O)[C@@H](CO)NC(=O)[C@@H](Cc1ccc(O)cc1)NC(=O)[C@@H](CCC(N)=O)NC(C)=O)C(N)=O
B12: ZP-0175 (peptide)
peptide: Ac-[dH][dH][dT][dI][dV][dV]-NH2
SMILES: CC[C@@H](C)[C@@H](NC(=O)[C@H](NC(=O)[C@@H](Cc1c[nH]cn1)NC(=O)[C@@H](Cc1c[nH]cn1)NC(C)=O)[C@H](C)O)C(=O)N[C@@H](C(=O)N[C@@H](C(N)=O)C(C)C)C(C)C
B13: ZP-0172 (peptide)
peptide: Ac-[dH][dH][dV][dI][dV][dW]-NH2
SMILES: CC[C@@H](C)[C@@H](NC(=O)[C@H](NC(=O)[C@@H](Cc1c[nH]cn1)NC(=O)[C@@H](Cc1c[nH]cn1)NC(C)=O)C(C)C)C(=O)N[C@@H](C(=O)N[C@H](Cc1c[nH]c2ccccc12)C(N)=O)C(C)C
B14: ZP-0181 (peptide)
peptide: Ac-[dH][dH][dT][dL][dV][dA]-NH2
SMILES: CC(=O)N[C@H](Cc1c[nH]cn1)C(=O)N[C@H](Cc1c[nH]cn1)C(=O)N[C@@H](C(=O)N[C@H](CC(C)C)C(=O)N[C@@H](C(=O)N[C@H](C)C(N)=O)C(C)C)[C@H](C)O
B15: ZP-0162 (peptide)
peptide: Ac-[dH][dH][dV][dE][dV][dA]-NH2
SMILES: CC(=O)N[C@H](Cc1c[nH]cn1)C(=O)N[C@H](Cc1c[nH]cn1)C(=O)N[C@@H](C(=O)N[C@H](CCC(=O)O)C(=O)N[C@@H](C(=O)N[C@H](C)C(N)=O)C(C)C)C(C)C
B16: ZP-0202 (peptide)
peptide: Ac-[dQ][dY][dK][dV][dL][dI]-NH2
SMILES: CC[C@@H](C)[C@@H](NC(=O)[C@@H](CC(C)C)NC(=O)[C@H](NC(=O)[C@@H](CCCCN)NC(=O)[C@@H](Cc1ccc(O)cc1)NC(=O)[C@@H](CCC(N)=O)NC(C)=O)C(C)C)C(N)=O
B17: ZP-0186 (peptide)
peptide: Ac-[dH][dH][dT][dL][dV][dV]-NH2
SMILES: CC(=O)N[C@H](Cc1c[nH]cn1)C(=O)N[C@H](Cc1c[nH]cn1)C(=O)N[C@@H](C(=O)N[C@H](CC(C)C)C(=O)N[C@@H](C(=O)N[C@@H](C(N)=O)C(C)C)C(C)C)[C@H](C)O
B18: ZP-0159 (peptide)
peptide: Ac-[dH][dH][dV][dV][dV][dA]-NH2
SMILES: CC(=O)N[C@H](Cc1c[nH]cn1)C(=O)N[C@H](Cc1c[nH]cn1)C(=O)N[C@@H](C(=O)N[C@@H](C(=O)N[C@@H](C(=O)N[C@H](C)C(N)=O)C(C)C)C(C)C)C(C)C
B19: ZP-0180 (peptide)
peptide: Ac-[dH][dH][dT][dV][dV][dA]-NH2
SMILES: CC(=O)N[C@H](Cc1c[nH]cn1)C(=O)N[C@H](Cc1c[nH]cn1)C(=O)N[C@@H](C(=O)N[C@@H](C(=O)N[C@@H](C(=O)N[C@H](C)C(N)=O)C(C)C)C(C)C)[C@H](C)O
B20: ZP-0160 (peptide)
peptide: Ac-[dH][dH][dV][dL][dV][dA]-NH2
SMILES: CC(=O)N[C@H](Cc1c[nH]cn1)C(=O)N[C@H](Cc1c[nH]cn1)C(=O)N[C@@H](C(=O)N[C@H](CC(C)C)C(=O)N[C@@H](C(=O)N[C@H](C)C(N)=O)C(C)C)C(C)C
B21: ZP-0169 (peptide)
peptide: Ac-[dH][dH][dV][dI][dV][dV]-NH2
SMILES: CC[C@@H](C)[C@@H](NC(=O)[C@H](NC(=O)[C@@H](Cc1c[nH]cn1)NC(=O)[C@@H](Cc1c[nH]cn1)NC(C)=O)C(C)C)C(=O)N[C@@H](C(=O)N[C@@H](C(N)=O)C(C)C)C(C)C
B22: ZP-0170 (peptide)
peptide: Ac-[dH][dH][dV][dI][dV][dT]-NH2
SMILES: CC[C@@H](C)[C@@H](NC(=O)[C@H](NC(=O)[C@@H](Cc1c[nH]cn1)NC(=O)[C@@H](Cc1c[nH]cn1)NC(C)=O)C(C)C)C(=O)N[C@@H](C(=O)N[C@@H](C(N)=O)[C@H](C)O)C(C)C

target: α-synuclein (UniProt P37840 1-140); test: cell-based or functional assay
Note: test concentration or dose not given here.

% decrease in ThT fluorescence [%] | % decrease in rate of aggregation [%] | % increase in Lag phase [%] | Binder
-8.6 | -5.4 | 29.8 | B1
3.3 | 8.4 | 25.9 | B2
-5.9 | 2.3 | 19.7 | B3
11.6 | 7.7 | 38.8 | B4
5.5 | 3.6 | 29.7 | B5
0.6 | -0.6 | 30.4 | B6
15.1 | 18.4 | 32.5 | B7
8.7 | -15.8 | 31.4 | B8
13.9 | 13.2 | 43.6 | B9
1.4 | -5.6 | 23.6 | B10
16.6 | -11.9 | 30.6 | B11
21.9 | 16.8 | 89.7 | B12
-1.7 | 6.9 | 28.1 | B13
22.8 | -1.2 | 29.4 | B14
6.3 | 6.6 | 33.4 | B15
53.5 | 54.5 | -28.8 | B16
30.7 | 29.7 | 16.1 | B17
19.8 | 18.6 | 36.6 | B18
19.8 | 18.4 | 30.3 | B19
8.8 | 10.5 | 36.5 | B20
-0.5 | -13.3 | 26.1 | B21
24.5 | 29.3 | 29.4 | B22
